Experimental findings from the DeepSol protein solubility set are described below.

The series can be described thus: soluble on expression in E. coli; label from the status in PepcDB or PDB records.
“MGHHHHHHSHPKQEKLLSLAGDSLFWSEADVVQATDDFNQNRKISQGTFADVYRGHRHGKPFVFKKLRETACSSPGSIERFFQAELQICLRCCHPNVLPVLGFCAARQFHSFIYPYMANGSLQDRLQGQGGSDPLPWPQRVSICSGLLCAVEYLHGLEIIHSNVKSSNVLLDQNLTPKLAHPMAHLCPVNKRSKYTMMKTHLLRTSAAYLPEDFIRVGQLTKRVDIFSCGIVLAEVLTGIPAMDNNRSPVYLKDLLLSDIPSSTASLCSRKTGVENVMAKEICQKYLEKGAGRLPEDCAEALATAACLCLRRRNTSLQEVCGSVAAVEERLRGRETLL”: the “soluble on expression in E. coli” value is on record as “not soluble”.
Regarding “MSLSGKNNIELDSWKKAINVISKNMDNGRIGIVQGPPGTGKTTIYANAFSRYFDKLGDGNIIVYIAPTNELVYDMFKKVGSEYAKRGAIDRISHEVRVYGSIFDQDPSIRSIREPPSMETKIVLMTNYQRLYPGNNRFNYNVMIDEASKSPLHTAFIGLANQLAKDELDGSISIVGDPMQAISLGPYQGSARRMLIMSYLLAPMLNHSSRDLNDRELLAEAKRSAIRGSSFEFLEVTLRMPSPSEEAISKGFYDNDLRAYRSASQILHSNYEANKLRELATEKEQMRKITEKVEELISTGRCILYERVNEKKSYDSNYYRKYGLTYDPTRAELGIETAIALAAGTGKHTTVITTYVDQQIQMDLLMRRKYGYILEKYGIRDQISFSTTQSFLGAEDDNIVAVLGKEYSISTYTQNYSTSTYNEGDPSTIYFNEPEVLNVQLSRHKMLLAIIGNLSILASQAAEGHHHHHH”, the “soluble on expression in E. coli” value is listed as “not soluble”.
Consider “MYVENSYLSKQLCFLFYVSSKEIIKKYTNYLKEYDLTYTGYIVLMAIENDEKLNIKKLGERVFLDSGTLTPLLKKLEKKDYVVRTREEKDERNLQISLTEQGKAIKSPLAEISVKVFNEFNISEREASDIINNLRNFVSKNFDYSDKK”, for which the “soluble on expression in E. coli” value is listed as “not soluble”.
On to “MEIKDTYNIGELSPGMTATFEGEVISALPIKEFKRADGSIGKLKSFIVRDETGSIRVTLWDNLTDIDVGRGDYVRVRGYIREGYYGGLECTANYVEILKKGEKIESLEHHHHHH”, for which the “soluble on expression in E. coli” value is “not soluble”.
As to “RLLKVPVFVHESDLSMGLANKIAYKFATIMYTTFEQSKDLIKTKHIGAVTKVMDCKKSFENTDLTSIKEAFDPNLKTLLFIGGSAGAKVFN”, the “soluble on expression in E. coli” value was “not soluble”.
For the sequence “SATLLHDAVMNPAEVVKQRLQMYNSQHQSAFSCIRTVWRTEGLGAFYRSYTTQLTMNIPFQSIHFITYEFLQEQVNPRRDYNPQSHIISGGLAGALAAAATTPLDVCKTLLNTQENMALSLANVSGRLSGMANAFRTVYQLNGLAGYFKGIQARVIYQMPSTAISWSVYEFFKYILTKRQLENRTLY”, the “soluble on expression in E. coli” value is given as “soluble”.
On to “MKNFVRTTLLAATLAGVSFGAFATAVPNPPLPAQDPIVQHLKLTNDQITRIKKLHQQLETDVSQISMKGIKDGALIEVIKSGKWDDAAVKQQLAAFSNIEQQARYYRVKYYFDLSKVLTPEQRQQVQQDLAQALE”, for which the “soluble on expression in E. coli” value is listed as “not soluble”.
With “MLEWRGDKYVNGYYPVSSSAPDLLLECISNESKKYLPGELIAVECKWRSTVNFFIPKSDAEKYEKYFRTNKTRYRVKHLFYLFGFGWSDNAPESVYIIPSTALYEYDENTFEITFPNGELIKDKKIRMEDYKMKFKNLIYTVPENRKHLSYQTKSFDTKKKDEPMQR”, the “soluble on expression in E. coli” value is “not soluble”.
In the case of “MLKPLLAIFMISSALSIPLNRSDFLENDHVELMPLEKDGELNDKFRQEMIFSHNLDPSDSKQLSESIKEMFKKTDVNDDGFLTAGELKQQIRKNMEEHLEKSKNDSEIFFDIVDTNKDGSIVWEEFEPHFSKMHEKDHSDSELMDVHTEDPHRVDDEKRMFNRSDITRDGRLDRMEWHIFLHPEYSAQGLVEIVNDLMGVYDKNNDEVVSQDDFVNGIPGTVDELNPEFENMEKLEKERRLREFNEEIDENSDGKATFRELYDYVDPQNFRLASKEVNDIMMLTDANNDEKLSLEELLERDWLLARSSLLSARSSLHDEM”, the “soluble on expression in E. coli” value is “not soluble”.
Regarding “MAHHHHHHMPCNCRQGTGTHDHLQDGFARGGMFGVGSPLNAQVDVDLLQLWNSRNSVSEAARIFDPAKGDNDQPICSDADPELLLLIPLKEVCRIRSVSILGTNDDFAPSQVKLFCNPTGVVGFDSVRRLQHQEEIQLAQVSADDRIAYRLNPAKFSSAGCMGMLFEHSFGDDETHILRIELFGESTGRPVYQQTATNVVYEAMANPTDHNVGEELKKTFTIF”, the “soluble on expression in E. coli” value is “soluble”.
Take “MTALTWTDERVEQLKKLWEGGLSASQIAAELGNVTRNAVIGKVHRLGLSGRAKSPTSAAPRPRKARPVQQMMRVTRPVARGNTALAHAFEVEAEPDPIAFDNVVPMNQRLSLLELNEATCHWPVGDPSSPEFFFCGGKSLPGLPYCAHHSRIAYQPVGDRRRAAPKTTRLEHHHHHH”: the “soluble on expression in E. coli” value is reported as “soluble”.
Consider “MSLDTDREQILAEFLSIDRTKVRRIEHHRCHAAYSYYASKYRNKPILALTVDGWGDGKDATIGIFDEKGKYSRVYESDQCAIGRIYRYMTLMLGMKPNEHEFKVMGLAPYGKETHAKKALDILRNTLYVDGEEFKWKEKPKDSYFWFKERFEGVRFDNIAFALQKWTEELLVEWVKNAINKYKIHDIVISGGVAMNIKAMGKIADLPEVKSLFIGGSASDESMAISSGICLAEDLTKESSREWNSNTIESLTRLYLGPSASLKEEERVVDGLDKKKFEIIENPENKRIAEVLFEGKILARAAGRMEFGQRALGNRSILADPIHLKIKEKINSAIKSRDFWMPFAPVVMDTFVERYLLNPKSLESPHMTLSFDTTEEGYDAMSAACHPADRTARAQILKEHDNPELYSLLKAFQHLTGRGALLNTSFNLHGFPIVNSPSEAVDVLVNSGLDGLILNYFLILKKEGHHHHHH”, for which the “soluble on expression in E. coli” value was “not soluble”.
As for “MSLNQIYQLTKPKFINVKYQEEAIDQENHILIRPNYMAVCHADQRYYQGKRDPKILNKKLPMAMIHESCGTVISDPTGTYEVGQKVVMIPNQSPMQSDEEFYENYMTGTHFLSSGFDGFMREFVSLPKDRVVAYDAIEDTVAAITEFVSVGMHAMNRLLTLAHSKRERIAVIGDGSLAFVVANIINYTLPEAEIVVIGRHWEKLELFSFAKECYITDNIPEDLAFDHAFECCGGDGTGPAINDLIRYIRPQGTILMMGVSEYKVNLNTRDALEKGLILVGSSRSGRIDFENAIQMMEVKKFANRLKNILYLEEPVREIKDIHRVFATDLNTAFKTVFKWEEGHHHHHH”, the “soluble on expression in E. coli” value is given as “soluble”.
With “MGSDKIHHHHHHMMFEDTHDEHVLLTPGPTPIHPRAQKALIRSMLGHMDPEVFALNSEIQRDLREMYGTEPEGFTALLAGTGSLGMEAGFANLVEAGDEVLVCANGSFGRRMAEMAARYGAKVRLVTAPLGEAIKPADVAAHLDDDISMVAVVHGETSTGVLNPVPEIAELVRGSGALLTVDAVTTAGMEPFHMQQWGVDYAYTGAQKCLSAPPGLAPVAISERAFSRFAARRTQTPLWYCDFEGLRDYWVNHTYHHTVPVNLHFAFHAALRAALEEGLEARQARVRLMGRVIERTLAPLGFSHYVRRPEDRLPTVLALRLPEGFDDAGLRQALRQREISVTGGLGPTAGVIWRLGLMGESARPGPYHRLMTELEDLLGAPGLLDRYEAVLAEEQRGELALA”, the “soluble on expression in E. coli” value was “not soluble”.
As to “MPNKISGSIAPSASSDAMKSADCAENIKEEVVSKHVHQAVPAELADLPSRQPPRSKTALYQVIQKFRDPLPLPPPPTSHPVLAYDRDLGSSDNFRSSDEFDLPESLNPTGWKNLHVSGSGSIASIGQITRLRPSKERPVVVLDAREESHAIVGGYPGTWRTPNNWGNAGKSRDEALADEQQRIQALKSQETVHIFHRKDVKSEARNPRGATLSKPLIFSEEELVRAAGAKYVRLTVTDHLSPRADDIDAFIAMEREMAHDERLHVHCGMGLGRTTIFIVMHDILRNAAMLSFDDIIERQRKFNPGRSLDNNKDVSDKGRSEFRNERSEFLPLFYEYAKQNPKGQPLLWSEWLDHNA”, the “soluble on expression in E. coli” value is “not soluble”.
Turning to “MSEIHAGGCHCGRLRYQFDAPLKDIAHCHCSICWRTSGATVVTWISVPLASFKWLTGSPAAYDSAATCVRYFCGNCGAHMALFTRNSPNEMDVTIATLDQPELAVPSRHIWIENRLPWLHLDEDLPGDEGEP”, the “soluble on expression in E. coli” value is on record as “not soluble”.
For the sequence “MGDIDYQAIEFAYTKCADQQRDTPARHCVIVVGAGPVGLTTALDLARQGLRVVVLDDDYRLSTGSRAICFAKRTLEIWDRLGVGQRMVDKGVSWNVGKVFFRDQEVWRFDLLPEPGHRRPAFINLQQYYAEGYLHELASAQPGIELRWKSKVVGVAQQADGVQVTVDTPDGAYALHVDWLVACDGARSPVRKLLDLETHGRVFKDRFLIADVKMAADYPAERWFWFDPPFHPNQSVLLHMQPDNVWRIDFQLGWNADPVEAVKPENVLPRIRALLGPDADFELEWVSVYTFACERMDHFRHGRVVFAGDSAHRVSPFGARGANSGVQDAENLAWKLKLVLAGHAPESLIDSYAAEREYAADENILNSSRSTDFITPKSEVSRTFRNAVLNLARQHPFARTLVNSGRLSVPAAYADSPLNTPDSDPYAGTMRPGAVALDAPVRADAQPGWWLSQLDGGFALALFCGAETPRADMLDALRALQQDEVPVQPILVCDAGAAPAAAPAGVRVVEDSEGWLARRYDARPGTCYLIRPDQHIAARFRAFDAQAVRRALARAIGRALEHHHHHH”, the “soluble on expression in E. coli” value is “not soluble”.
The same measure for “MPSPARRSRRRRSSLLNFSFSEVDLEQQRRALEMFEQQMNDQAFAQLIHDHDVQHINNDANQVPAAPNTPPVPVPPPVQQPQASPNASPVSVLRRRRYANPEQERFGDISRRIHNPANQIPAAPNTQPEVPPTVQQPESSSQERASPTSPEITIFSTGLLGLRRRSSARISIRMSATAQTNLPITPIRRRRGRAVSPILEIEFENLSSSSSGTSGDSGNHSSPTNTNDQSFIGDDARTYDQEHVPIDFEGPSTSTGITDRHPRRRNQDGSHGECTMCFEVPVSPLGCNNCLQIIGCEECVDIWYRSSSKPSCPLCRRKWARKPDVSKMSVISVRKQSSLRRSKRRITSK”: “not soluble”; for “MLQVCCYTSEGYKYAVGIDLVRFFDTVNHSFLLRILSRTINDGRVISLIHKYLTSGVMIGKHYEPSIEGTPQGAPLSPLLSNILLNELDKELERRGHCFVRYADDSMILCKSKRSAERVCSSITDFSFYFTKGKCRLCVHKTTKEKFKRKVKSLTRRSNSMGYAQRKEILWQTFRGWIGYFKYADMRSLLIPLDQWYRRHLRMCIWKCWKRVKTRFSNLQKCGIPKGKA”: “not soluble”.
On to “MDPAKNEYGMGSTLTTLAYEKFAKAAKYNTQQNDLAAPTAQLDIAVSLSGFKEGDSNYPINPILKLTNNSTQTIPGGTRIEFLVPTSTSDTITDQSGMGLKVVESGGNQNSDGIAGEKDFHKAAFTLPTWKAWAPGSDVEVAMTYYLPAAGVPSGIRIISGTQTAGLKAEFPTLPEAVLEHHHHHH”, for which the “soluble on expression in E. coli” value was “soluble”.
In the case of “NTIQQLMMILNSASDQPSENLISYFNNCTVNPKESILKRVKDIGYIFKEKFAKAVGAGCVAIGSQRYKLGVRLYYRVMESMLKSEEERLSIQNFSKLLNDNIFHMSLLACALEVVMATYSRSTSQNLDSGTDLSFPWILNVLNLKAFDFYKVIESFIKAEGNLTREMIKHLERCEHRIMESLAWLSDSPLFDLIKQSKTREGKSTSLSLFYKKVYRLAYLRLNTLCERLLSEHPELEHIIWTLFQHTLQNEYELMRDRHLDQIMMCSMYGICKVKNIDLKFKIIVTAYKDLPHAVQETFKRVLIKEEEYDSIIVFYNSVFMQRLKTNILQYASTRPPTLSPIPHI”, the “soluble on expression in E. coli” value was “soluble”.
